The values below come from article PMC553973.

This assay has as its target fibronectin 70 kDa N-terminal fragment. In words: SPR; BIAcore X; FN 70 kDa fragment immobilised on a CM5 chip; HGF (30–500 nM) injected in HEPES saline pH 7.4 with 1 mM MgCl2, 2 mM CaCl2; equilibrium and Scatchard analysis; apparent Kd; n = 3. A general note: Surface plasmon resonance follows binding to a sensor surface in real time, without labels.

With “hepatocyte growth factor (from UniProt P14210 32-728) (ligand)”, the Kd came out at 300 nM, the Kd of the high affinity site (two-site model) was 15 nM and the Kd of the low affinity site (two-site model) is 4000 nM.
